Legend:
[1] = biological target: GluK2-ATD (Cys-light homomeric GluK2 receptor with a cysteine at site 266) (Rattus norvegicus) (UniProt P42260)
[2] = biological target: GluK2-ABD (Cys-light homomeric GluK2 receptor with a cysteine at site 479) (Rattus norvegicus) (UniProt P42260)

In the case of Concanavalin A (natural protein), the smFRET efficiency across the dimer-dimer interface at the ATD (site 266) with 40 uM Con-A and 1 mM glutamate; primary population, against 0.83 reported earlier without Con-A (FRET efficiency) [1] is reported as 0.95 and the smFRET efficiency between subunits at the ABD dimer interface (site 479) with 40 uM Con-A and 1 mM glutamate, Na+; major peak, shift of the population to higher FRET states against no Con-A (FRET efficiency) [2] is reported as 0.94.

Source: publication PMC8401665
